Data as given in the nanobody polyreactivity screen of Harvey et al. (2022).

experiment: yeast display, Sf9 membrane polyspecificity reagent, FACS + sequencing; frameworks hold sequencing errors
Procedure, shortened: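 Using colony PCR, genes from sorted yeast display clones were amplified, then sequenced on MiSeq at 2 × 250 and filtered by CDR length. The clones had been stained with 10% biotinylated, detergent-solubilized Sf9 membrane reagent for 1 hour at 4 °C and sorted by FACS into low and high (top ~1%) gates on anti-HA and streptavidin fluorescence. Polyreactivity labels come from the gate of origin.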

Sequence | polyreactivity (PSR sort gate)
QVQLVESGGGLVQAGGSLRLSCAASGITFTYYAMGWYRPAPGKERELVAAITDRGGRTYYADSVKWRFTISRDNAKKTVYLQMNRLNPDDTAVYFCNTVPTSNSRTSVYFPYYYWGQGTQVTVSS | high polyreactivity
QVQLVESGGGLVQAGGSLRLSCAACGSTFFRNAMGWYRQAPGKERELVAAISKSGTSTYYADSVKGRFTISRDNAKNTVYLQMNSLKPEDTAVYYCAADSRYPWRGDYWGQGTQVTVSS | high polyreactivity
QVQLVESGGCLVQAGGSLRLSCAASGSIFRYNIGWYRQAPGKERELVAAISSSGVRTYYADSVKGRFTISRDNAKNTVYLQMNSLKPEDTAVYYCAAASGGRWRVGYWGQGTQVTVSS | high polyreactivity
QVQLVESGGGLVQAGGSLRLSCAASGRIFGVYAMGWYRQAPGKERELVAAIYSGSSTYYADSVKGRFTISRDNAKNTVYLQMNSLKPEDTAVYYCAAVSRDDNYHDYYYWGQGTQVTVSS | low polyreactivity
QVQLVESGGVLVQAGGSLRLSCAASGFTFAKNAMGWYRQAPGKERELVATISRSGGSTYYADSVKGRFTISRDKAKNTVYLQMNSLKPEDTAVYYCNKKYKYLYDYWGQGTQVTVSS | high polyreactivity
QVQLVESGGGLVQAGGSLRLSCAASGRTFGYNAMGWYRQAPGKESELVAAINWSGASTYYADSVKGRFTISRDNAKNTVYLQMNSLKAEDTAVYYCAADYSYIYGFDYWGQGTQVTVSS | low polyreactivity
QVQLVESGGGLVQAGGSLRLSCAASGSIFRYYDMGWYRQAPGKERELVAAITYSGGGTYYADSLKGRFTISRDNAKNTVYLQMNSLKPEDTAVYYCAAEPYYGWQRLDYWGQGTQVTVSS | low polyreactivity
QVQLVESGGGLVQAGGSLRLSCAASGITIAGYAMGWYRQAPGKERELVAAITIGGRTYYADSVKGRFTISRDNAKNSVYLQMNSLKPEDTAVYYCAGVVRALTIKYGYWGQGTQVTVSS | high polyreactivity
QVQLVESGGGLVQAGGSLRLSCAASGRTFSYYAMGWYRQAPGKERELVASITSGGRTYYADSVKGRFTISRDNAKNTFYLQMNSLKPEDTAVYYCNVDNQYLDRYGRRYGYWGQGTQVTVSS | low polyreactivity
QVQLVESGGGLVQAGGSLRLSCAASGLTFQLYAMGWYRQAPGKERELVAAISGSGGRTYYADSVKGRFTISRDNGKNTVYLLMNRLKPEDTAVYYCAARPGSGRSYTSDYWGQGTQVTVSS | high polyreactivity
QVQLVESGGGLVQAGGSLRLSCAASGSTFNGYAMGWYRQAPGKERELVAAISSRSGRTYYADSVKGRFTISRDNAKNTVYLQMNSLKPEDTAVYYCAAYNGSRRQEFDYWGQGTQVTVSS | high polyreactivity
QVQLVESGGGLVHAGGSHRLSCAASGSIFDVNAMGWYRPPRGKERELFAAITGTGGSTYYADSVKGRFTISRDNAKNSVYLQMYSLKPDDTSVYDCATVTGVRKYGYWGQGTQVTVSS | high polyreactivity
QVQLVESGGGLVQAGGSLRLSCAASGRIFQKYAMGWYRQAPGKERELGAAISSGDSTYADSVKGRFTISRDNAKNTVYLQMNSLKPEDTAVYYCAVDLYDPWWYSYIGEYEYWGQGTQVTVSS | low polyreactivity
QVQLVESGGGLVQAGGSLRLSCAASGSIFSGNAMGWYRQAPGTERELVATISWSGGSTNYADSVKGRFTISRDNAKNTVYIQMNSLKPEETSVYYCNAYVAYWGWVYRVDYWRQGTQVTVSS | low polyreactivity
QVQLVESGRGLVQAGGSLRLSCAPSGSTFGKYAMGWFRQAPGKERELVAASSSGTSTNYADSVKGRFTISRDNAKNTVYLQMNSRKAEDTSVYYCAADSLKRYDDWGQGTQVTVSS | low polyreactivity
QVQLVESGGGLVQAGGSLRLSCAASGFTFRLYTMGWYRQAPGKERELVAAITYSGDSTYYADSVKGRFTISRDNAKNTVYLQMNSLKPEDTAVYYCAARKYYARYYWGQGTQVTVSS | high polyreactivity
QVQLVESGAGLVQAGGSLRLSCAASGFIYEWYTMGWYTQAPGKERELVARISTDGSTTYADSVKGRFTISRDHAKKTVYLQMNSLKPEDTSVYYCAADVTYPGLKYIFDYWGQGTQVTVSS | low polyreactivity
QVQLVESGGGLVQAGGSLRLSCAASGITLGYYVMGCYRPAPGKERELVAAISSSGGRTYYADSVKGRFTISRDTAKNTVYLQMNCLKPEDTAVYYCAADVGRGIYDYWGQGNQVTVSS | low polyreactivity
QFQLVESAGGLLQAGGSLRIICAASGSTFGYNAMGWYRQAPGKERELVAAITGGGTTNYADSVKGRFTISRDNAKNTVYLQMNSLKPEDTAVYYCAASARRFFFPIYGLYYWGQVTQVTVSS | high polyreactivity
QVQLVESAGGLVQAGGSLRLICADSGSIFSNDAMGWYTQAPGKERELVAAITNGVSTNYADSVKGRFTISRDNAKNTVYLPMNSLIPEDTAVYYCAAVSRSYYNSYNYWGQGTQVTVSS | high polyreactivity
QVQLEESGGRLVQAGGSIRLTCAASGSIFASNTKGWYRQAPGKERELVAGITKIGSSTYYADSVKGRFTISRDNAKNTVYLQMNSLKPEDTAVYYCNAYGPNIYSSRYDYWGQCTQVTVSS | low polyreactivity
QVKLVESGGGLVQAGGSLRLSCAASGSIFSRNTIGCDRQEPGKERELVAGISSSGSRTYYADSVKGRFTISRDNAKNTVYLQMNSLIPEDTAVYYCAAEHQRSRGRRYYIGYDYWGQGTQVTVSS | low polyreactivity
QVQLVESGGGLVQAGGSLRLSCAASGFTFQGNVMGWYRQAPGKERELVAVITSGGSTYYADSVKGRFTISRDNAKNTVYLQMNSLKPEDTAVYYCAARAYTWGPAGQVEKYYYWGQGTQVTVSS | high polyreactivity
QLQLVESGGGLVQAGGSLRLSCAASGSIIAAYAMGWYRQAPVKERELVAVITRSGGSTYYADSVKGRFTISRDNAKNTVYLQMNSLKPEDTAVYYCAAVGTRKMYYWGQGTQVTVSS | high polyreactivity
QVQLVESGGGLVQAGGSLRLSCAASGRTIFYNAMGWYRQAPGKERELVAAINWRGGSTYYADSVKGRFTISRDIAKNTVYLQMNSLKPEDTAVYYCAARNVYVWYDYWGQGTQVTVSS | low polyreactivity
QVQLVESGGGLVQAGGSLRLSCAASGFTFGPYAMGWYRQAPGKERELVAASSQSGGRTSYADSVKGRFTISRDNAKNTVYLPMNSLKPEDTAVYYCAKRAYGYRSIYRMDYWGQGTQVTVSS | high polyreactivity
QVQLVESGGGLVQAGGSLRLSCAASGRIFAGYVMGWYRQAPGKERELVAAISGSGASTYYADSVKGRFTISRDNAKNTVYLQMNSLKPEDTAVYYCAADKPGIFSRFDYWGQGTQVTVSS | low polyreactivity
QVQLVESGGGLVQAGGSLRLSCAASGRILSYYPMGWYRQAPGKERELVAVIRRGASTYADSVKGRFTISRDNAKKTVYLQMNILKPEDTAVYYCAAADRDYTTFRYDYWGQGTQVTVSS | low polyreactivity
QVQLVESGGGLVQAGGSLRLSCAASGSTFGLYAMGWYRQAPVKEREFVAAISWRTGSTYYADSVKGRFTISRDTAKNTVYLQMNSLKPEDTAVYYCNAPYFYSRYSPDDYWGQGTQVTVSS | high polyreactivity
QVQRVESAGGLVQAGVSLRLSCAASGITFASNTMGWYRQAPGKARELVAAITRGDNTYYADSVKGRFTISRDNAKNTVYLHMNSLKPEDTAVYYCATEGYEIQYEHDYWGEGTQVTVSS | low polyreactivity
